{"source": "patent US20230416346", "key": {"[1]": {"biological_target": "recombinant human full-length SPARC (R&D Systems) (UniProt P09486)", "sequence (P09486 18-303)": "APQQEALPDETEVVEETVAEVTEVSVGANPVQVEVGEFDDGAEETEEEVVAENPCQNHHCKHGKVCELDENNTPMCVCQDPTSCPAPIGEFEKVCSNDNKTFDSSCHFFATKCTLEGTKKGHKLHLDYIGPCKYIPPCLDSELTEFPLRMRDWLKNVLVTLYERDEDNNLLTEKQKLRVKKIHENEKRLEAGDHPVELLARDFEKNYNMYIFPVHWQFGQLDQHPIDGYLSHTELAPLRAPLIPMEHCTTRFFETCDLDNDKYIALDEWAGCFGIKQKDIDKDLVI"}, "[2]": {"biological_target": "human SPARC secreted by human mammary fibroblasts (HMFs) (UniProt P09486)", "sequence (P09486 18-303)": "as above"}}, "data": [{"substance": "auto-activated 51-kDa pseudo-cath-D (recombinant human cathepsin D)", "values": [{"measurement": "ATOMS ratio (Pseudo-cathD + SPARC - pepst./Pseudo-cath-D + SPARC + pepst), peptide DQHPIDGYLSHTELAPLR [239-256], trypsin", "setting": "[1]", "result": 8.4}, {"measurement": "ATOMS ratio (Pseudo-cathD + SPARC - pepst./Pseudo-cath-D + SPARC + pepst), peptide EAGDHPVELLAR [207-218], trypsin", "setting": "[1]", "result": 11.3}, {"measurement": "ATOMS ratio (Pseudo-cathD + SPARC - pepst./Pseudo-cath-D + SPARC + pepst), peptide FGQLDQHPIDGYLSHTELAPLR [235-256], trypsin", "setting": "[1]", "result": 10.6}, {"measurement": "ATOMS ratio (Pseudo-cathD + SPARC - pepst./Pseudo-cath-D + SPARC + pepst), peptide GQLDQHPIDGYLSHTELAPLR [236-256], trypsin", "setting": "[1]", "result": 2}, {"measurement": "ATOMS ratio (Pseudo-cathD + SPARC - pepst./Pseudo-cath-D + SPARC + pepst), peptide PLIPMEHCTTR [258-268], trypsin", "setting": "[1]", "result": 22.5}, {"measurement": "ATOMS ratio (Pseudo-cathD + SPARC - pepst./Pseudo-cath-D + SPARC + pepst), peptide QLDQHPIDGYLSHTELAPLR [237-256], trypsin", "setting": "[1]", "result": 3.5}, {"measurement": "ATOMS ratio (Pseudo-cathD + SPARC - pepst./Pseudo-cath-D + SPARC + pepst), peptide SHTELAPLR [248-256], trypsin", "setting": "[1]", "result": 2.7}, {"measurement": "ATOMS ratio (Pseudo-cathD + SPARC - pepst./Pseudo-cath-D + SPARC + pepst), peptide VTLYERDEDNNLLTEK [176-191], trypsin", "setting": "[1]", "result": 12.1}, {"measurement": "ATOMS ratio (Pseudo-cathD + SPARC - pepst./Pseudo-cath-D + SPARC + pepst), peptide YERDEDNNLLTEK [179-191], trypsin", "setting": "[1]", "result": 13.7}, {"measurement": "ATOMS ratio (Pseudo-cathD + SPARC - pepst./Pseudo-cath-D + SPARC + pepst), peptide YERDEDNNLLTEKQK [179-193], trypsin", "setting": "[1]", "result": 21.1}, {"measurement": "ATOMS ratio (Pseudo-cathD + SPARC - pepst./Pseudo-cath-D + SPARC + pepst), peptide YLSHTELAPLR [246-256], trypsin", "setting": "[1]", "result": 18.8}, {"measurement": "SPARC cleavage at pH 5.9, ATOMS and silver staining", "setting": "[1]", "result": "SPARC was hydrolysed by the 51-kDa cath-D form exclusively in its extracellular Ca2+ binding domain, releasing five main SPARC fragments (34-, 27, 16, 9-, and 6-kDa) at pH 5.9"}, {"measurement": "SPARC cleavage, pH dependence (6.8 to 5.5), SDS-PAGE and immunoblot", "setting": "[1]", "result": "experiments in which pH was gradually reduced from 6.8 to 5.5 showed progressive limited proteolysis of SPARC at lower pH"}, {"measurement": "SPARC cleavage, time course at pH 5.9, SDS-PAGE and immunoblot", "setting": "[1]", "result": "At pH 5.9, SPARC was hydrolysed by cath-D in a time-dependent manner"}]}, {"substance": "fully-mature cath-D (34+14-kDa) (recombinant human cathepsin D)", "values": [{"measurement": "ATOMS ratio (Mature cath-D + SPARC - pepst./Mature cath-D + SPARC + pepst.), peptide DQHPIDGYLSHTELAPLR [239-256], trypsin", "setting": "[1]", "result": 8.1}, {"measurement": "ATOMS ratio (Mature cath-D + SPARC - pepst./Mature cath-D + SPARC + pepst.), peptide DWLKNVLVTLYER [169-181], trypsin", "setting": "[1]", "result": 0.5}, {"measurement": "ATOMS ratio (Mature cath-D + SPARC - pepst./Mature cath-D + SPARC + pepst.), peptide EAGDHPVELLAR [207-218], trypsin", "setting": "[1]", "result": 19.3}, {"measurement": "ATOMS ratio (Mature cath-D + SPARC - pepst./Mature cath-D + SPARC + pepst.), peptide FGQLDQHPIDGYLSHTELAPLR [235-256], trypsin", "setting": "[1]", "result": 5.9}, {"measurement": "ATOMS ratio (Mature cath-D + SPARC - pepst./Mature cath-D + SPARC + pepst.), peptide GQLDQHPIDGYLSHTELAPLR [236-256], trypsin", "setting": "[1]", "result": 2.3}, {"measurement": "ATOMS ratio (Mature cath-D + SPARC - pepst./Mature cath-D + SPARC + pepst.), peptide LDSELTEFPLR [156-166], trypsin", "setting": "[1]", "result": 0.4}, {"measurement": "ATOMS ratio (Mature cath-D + SPARC - pepst./Mature cath-D + SPARC + pepst.), peptide LSHTELAPLR [247-256], trypsin", "setting": "[1]", "result": 2.4}, {"measurement": "ATOMS ratio (Mature cath-D + SPARC - pepst./Mature cath-D + SPARC + pepst.), peptide PLIPMEHCTTR [258-268], trypsin", "setting": "[1]", "result": 4.3}, {"measurement": "ATOMS ratio (Mature cath-D + SPARC - pepst./Mature cath-D + SPARC + pepst.), peptide PVHWQFGQLDQHPIDGYLSHTELAPLR [230-256], trypsin", "setting": "[1]", "result": 5.6}, {"measurement": "ATOMS ratio (Mature cath-D + SPARC - pepst./Mature cath-D + SPARC + pepst.), peptide QLDQHPIDGYLSHTELAPLR [237-256], trypsin", "setting": "[1]", "result": 2.2}, {"measurement": "ATOMS ratio (Mature cath-D + SPARC - pepst./Mature cath-D + SPARC + pepst.), peptide SHTELAPLR [248-256], trypsin", "setting": "[1]", "result": 1.6}, {"measurement": "ATOMS ratio (Mature cath-D + SPARC - pepst./Mature cath-D + SPARC + pepst.), peptide VTLYERDEDNNLLTEK [176-191], trypsin", "setting": "[1]", "result": 14.3}, {"measurement": "ATOMS ratio (Mature cath-D + SPARC - pepst./Mature cath-D + SPARC + pepst.), peptide WQFGQLDQHPIDGYLSHTELAPLR [233-256], trypsin", "setting": "[1]", "result": 3.1}, {"measurement": "ATOMS ratio (Mature cath-D + SPARC - pepst./Mature cath-D + SPARC + pepst.), peptide YERDEDNNLLTEK [179-191], trypsin", "setting": "[1]", "result": 11.8}, {"measurement": "ATOMS ratio (Mature cath-D + SPARC - pepst./Mature cath-D + SPARC + pepst.), peptide YERDEDNNLLTEKQK [179-193], trypsin", "setting": "[1]", "result": 16.8}, {"measurement": "ATOMS ratio (Mature cath-D + SPARC - pepst./Mature cath-D + SPARC + pepst.), peptide YLSHTELAPLR [246-256], trypsin", "setting": "[1]", "result": 5.7}, {"measurement": "SPARC cleavage at pH 5.9, ATOMS and silver staining", "setting": "[1]", "result": "We detected SPARC cleavage fragments of similar size also after incubation with the fully mature 34+14-kDa cath-D form at pH 5.9"}]}, {"substance": "human cath-D secreted by TNBC cells (MDA-MB-231)", "values": [{"measurement": "SPARC cleavage in MDA-MB-231/HMF conditioned medium at pH 5.5, immunoblot", "setting": "[2]", "result": "SPARC was hydrolysed in a time-dependent manner in the conditioned medium at pH 5.5"}, {"measurement": "SPARC cleavage in MDA-MB-231/HMF conditioned medium at pH 6.8 to 5.5, immunoblot", "setting": "[2]", "result": "in the MDA-MB-231/HMF conditioned medium, SPARC was significantly degraded up to pH 6.2"}, {"measurement": "TAILS ratio (CM - pepst./CM + pepst.), peptide DQHPIDGYLSHTELAPLR [239-256], trypsin", "setting": "[2]", "result": 7.6}, {"measurement": "TAILS ratio (CM - pepst./CM + pepst.), peptide EAGDHPVELLAR [207-218], trypsin", "setting": "[2]", "result": 3.4}, {"measurement": "TAILS ratio (CM - pepst./CM + pepst.), peptide GQLDQHPIDGYLSHTELAPLR [236-256], trypsin", "setting": "[2]", "result": 12.4}, {"measurement": "TAILS ratio (CM - pepst./CM + pepst.), peptide PLIPMEHCTTR [258-268], trypsin", "setting": "[2]", "result": 5.9}, {"measurement": "TAILS ratio (CM - pepst./CM + pepst.), peptide QLDQHPIDGYLSHTELAPLR [237-256], trypsin", "setting": "[2]", "result": 15.1}, {"measurement": "TAILS ratio (CM - pepst./CM + pepst.), peptide YLSHTELAPLR [246-256], trypsin", "setting": "[2]", "result": 4.4}]}]}
